Data set [1] concerns the target T1, Aryl Alcohol Oxidase (AAOx) (Pleurotus eryngii, UniProt O94219).
T1 construct: gene aao; N-terminal His-tag, pET-15b, E. coli BL21-GOLD; FAD added during purification; IMAC and SEC
T1 sequence (O94219 22-593): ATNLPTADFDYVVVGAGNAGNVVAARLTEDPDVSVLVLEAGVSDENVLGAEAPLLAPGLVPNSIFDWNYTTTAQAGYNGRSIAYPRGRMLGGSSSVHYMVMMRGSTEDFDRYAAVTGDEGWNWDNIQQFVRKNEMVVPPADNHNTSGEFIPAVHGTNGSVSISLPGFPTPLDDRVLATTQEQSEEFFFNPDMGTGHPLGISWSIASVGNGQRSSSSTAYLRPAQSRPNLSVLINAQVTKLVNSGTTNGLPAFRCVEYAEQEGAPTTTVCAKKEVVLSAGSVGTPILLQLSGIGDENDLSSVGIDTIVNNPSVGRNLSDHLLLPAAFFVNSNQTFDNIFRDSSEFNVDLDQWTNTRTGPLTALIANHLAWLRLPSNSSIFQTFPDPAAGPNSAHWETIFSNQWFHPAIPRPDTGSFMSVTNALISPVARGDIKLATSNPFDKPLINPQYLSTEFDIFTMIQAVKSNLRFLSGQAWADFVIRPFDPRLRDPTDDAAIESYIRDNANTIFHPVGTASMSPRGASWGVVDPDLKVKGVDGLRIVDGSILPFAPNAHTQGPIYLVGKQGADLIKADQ
In words: absorbance of cinnamyl aldehyde at […] nm. Format: biochemical. The settings on record: 5 nM enzyme, 250 µM substrate, pH 5.5-7.5, 10 mM ionic strength Tris/Bis-Tris, 30 mM NaCl.

Substrate in data set [2]: CCCC(=O)Oc1ccc2c(C)cc(=O)oc2c1
Description: fluorescence of released 4-methylumbelliferone, initial rates, Michaelis-Menten fit. Format: biochemical, Geobacillus thermocatenulatus. The following applies: homogeneous enzyme, 0.5 µM, 24 mM Tris, 10 mM NaCl, pH 7.5, substrate solubility kept concentrations below the KM. The source says:
fluorescence of released 4-methylumbelliferone, initial rates, Michaelis-Menten fit on BTL2 (Bacillus thermocatenulatus Lipase 2)

We go through 2 molecules from article PMC12246476, “Enhancement of enzymatic activity by biomolecular condensates through pH buffering” (Nature Communications, 2025).

One may read the Km as the concentration of substrate that gives half-maximal velocity. The term Vmax denotes the top rate of the reaction or transport when substrate is in excess. As usually defined, the kcat is the number of substrate molecules converted per active site and unit of time at saturation.

For `OC/C=C/c1ccccc1` [CAlc, Cinnamyl Alcohol], the “absorbance of cinnamyl aldehyde at 310 nm” value in data set [1] is recorded as “measuring the rate of the oxidation reaction of CAlc to CAld catalyzed by AAOx”.

B1: BTL2 (Bacillus thermocatenulatus Lipase 2) (Geobacillus thermocatenulatus) (protein)
chain: ASPRANDAPIVLLHGFTGWGREEMLGFKYWGGVRGDIEQWLNDNGYRTYTLAVGPLSSNWDRACEAYAQLVGGTVDYGAAHAAKHGHARFGRTYPGLLPELKRGGRVHIIAHSQGGQTARMLVSLLENGSQEEREYAKAHNVSLSPLFEGGHHFVLSVTTIATPHDGTTLVNMVDFTDRFFDLQKAVLKAAAVASNVPYTSQVYDFKLDQWGLRRQPGESFDHYFERLKRSPVWTSTDTARYDLSIPGAEKLNQWVQASPNTYYLSFSTERTHRGALTGNYYPELGMNAFSAVVCAPFLGSYRNEALGIDDRWLENDGIVNTVSMNGPKRGSSDRIVPYDGTLKKGVWNDMGTCNVDHLEVIGVDPNPSFDIRAFYLRLAEQLASLRP
notes: N-terminal His-tag, pET-15b, E. coli BL21-GOLD; IMAC and SEC
Regarding B1, in data set [2], the Km was 713 ± 281 µM, the Vmax was found to be 126 µM/min and the kcat amounted to 4.3 ± 1.2 s⁻¹.
